Results: US20250101096A1 (SERA PROGNOSTICS, published 2025)
Numbering of substitutions follows the chain as printed.

Key:
[1] = biological target: T1, anti-IBP4 antibody clone variant 5B3.G9; assay: ECLIA, peptide competes with IBP4 for the antibody
T1 construct: Mouse monoclonal; variant form expressed in CHO cells; also called IBP4 (5B3.G9) V1; IBP4-5B3.G9

[2] = biological target: T2, anti-IBP4 antibody clone variant 7D6.G4; assay: ECLIA, peptide competes with IBP4 for the antibody
T2 construct: Mouse monoclonal; variant form; also called IBP4 (7D6.G4) V2; IBP4-7D6.G4

[3] = biological target: T3, human insulin-like growth factor binding protein 4 (IBP4) (human, UniProt P22692 22-258); assay: AC-MS, mAb on M-PVA beads, QC2 serum, round 2 (beads reused)
T3 construct: also called IBP4 protein; IGFBP4
T3 sequence: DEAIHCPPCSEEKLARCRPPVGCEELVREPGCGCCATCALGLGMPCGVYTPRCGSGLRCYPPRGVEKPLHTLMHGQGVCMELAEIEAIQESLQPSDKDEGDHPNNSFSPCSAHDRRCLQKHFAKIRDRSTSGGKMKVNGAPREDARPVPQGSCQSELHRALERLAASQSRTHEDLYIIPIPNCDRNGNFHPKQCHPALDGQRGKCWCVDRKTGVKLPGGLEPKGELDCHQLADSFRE

[4] = biological target: T3, human insulin-like growth factor …; assay: SPR, format and IBP4 form not stated
[5] = biological target: T3, human insulin-like growth factor …; assay: AC-MS, mAb on M-PVA beads, QC2 serum, round 1
[6] = biological target: T3, human insulin-like growth factor …; assay: AC-MS, mAb on M-PVA beads, pooled pregnant serum, peptide …
Excerpt: (§1) Anti-IBP4 antibody evaluation and selection. A total of 8 hybridoma clones (1H9.B6, 5C11.A7, 7G11.H4, 3D4.E9, 1G3.A3, 8G4.G11, 5F10.B2, and 3D8.A11) were produced according to the “additional production of anti-IBP4 antibodies” methods disclosed in Example 1 and screened by AC-MS, shown in Table 10 below. Monoclonal antibodies from these clones purified by protein-G affinity chromatography were covalently coupled to M-PVA magnetic beads and used in AC-MS experiments using pooled pregnant serum. The 5B3.G9 anti-IBP4 antibody clone was included in this analysis for comparison to the performance of the additional IBP4 antibodies, as shown and italicized in Table 10 below. Table 10 includes a summary of the additional antibodies Response Ratios and shared epitope binding results as determined by the competitive binding assays of Example 3.

[7] = biological target: T3, human insulin-like growth factor …; assay: AC-MS, mAb on M-PVA beads, pooled pregnant serum
Excerpt: as §1

[8] = biological target: T3, human insulin-like growth factor …; assay: AC-MS, mAb on M-PVA beads, QC2 serum, round 3 (beads reused)
[9] = biological target: T4, human sex hormone-binding globulin (SHBG) (human, UniProt P04278 30-402, O-linked glycan at T36 (native glycosylated form)); assay: SPR (Biacore T100), mAb captured on anti-mouse IgG, SHBG antigen injected, 1:1 fit, assay 2
T4 construct: Purified human SHBG, the SHBG antigen of the SPR runs, or SHBG in human serum; also called SHBG protein
T4 sequence: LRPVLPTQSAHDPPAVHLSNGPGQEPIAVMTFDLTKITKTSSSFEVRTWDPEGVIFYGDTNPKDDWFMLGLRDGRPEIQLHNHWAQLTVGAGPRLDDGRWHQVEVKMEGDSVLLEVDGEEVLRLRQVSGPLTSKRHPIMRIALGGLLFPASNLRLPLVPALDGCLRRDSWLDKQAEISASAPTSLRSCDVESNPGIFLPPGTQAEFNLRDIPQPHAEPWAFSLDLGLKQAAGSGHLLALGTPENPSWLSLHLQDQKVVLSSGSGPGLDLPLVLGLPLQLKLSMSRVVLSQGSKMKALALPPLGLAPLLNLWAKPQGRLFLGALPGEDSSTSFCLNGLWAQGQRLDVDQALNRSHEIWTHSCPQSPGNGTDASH
Method: (§2) Surface plasmon resonance experiments were performed on a BiacoreT100 to characterize the anti-SHBG and anti-IBP4 antibodies. Anti-mouse-IgG antibody was amine coupled to ˜500 RU on a C1 sensor chip using standard NHS/EDC activation. Test monoclonal antibodies were captured on the anti-mouse-IgG surfaces. The binding for the Sex Hormone Binding Globulin Antigen to anti-SHBG variant antibodies 4G10.F8 and 13C9.E5 were measured in a multi-cycle kinetic mode. Binding studies were performed in PBS buffer+0.05% P20+3 mM EDTA at 25 degrees C. SHBG was captured for 1 minute at 200 nM and regenerated with 1/100 H3PO4 after each cycle. SHBG was captured to similar densities on 2 different flow cells followed by an injection of the SHBG antigen in a 3-fold titration series up to 600 nM over the two surfaces. The responses were processed by subtracting the buffer injection to correct for drift. The data sets fit well to a simple 1:1 interaction model using SCRUBBER (Biologic Software Pty Ltd). The antigen concentration series was tested three times over each surface, giving rise to the kinetic an affinity parameters summarized below.

[10] = biological target: T4, human sex hormone-binding globulin …; assay: SPR (Biacore T100), mAb captured on anti-mouse IgG, SHBG antigen injected, average of 3 assays
Method: as §2

[11] = biological target: T4, human sex hormone-binding globulin …; assay: SPR (Biacore T100), mAb captured on anti-mouse IgG, SHBG antigen injected, 1:1 fit, assay 1
Method: as §2

[12] = biological target: T4, human sex hormone-binding globulin …; assay: SPR (Biacore T100), mAb captured on anti-mouse IgG, SHBG antigen injected, 1:1 fit, assay 3
Method: as §2

T1 sequence (heavy, as listed by the source, chain 1 of 2): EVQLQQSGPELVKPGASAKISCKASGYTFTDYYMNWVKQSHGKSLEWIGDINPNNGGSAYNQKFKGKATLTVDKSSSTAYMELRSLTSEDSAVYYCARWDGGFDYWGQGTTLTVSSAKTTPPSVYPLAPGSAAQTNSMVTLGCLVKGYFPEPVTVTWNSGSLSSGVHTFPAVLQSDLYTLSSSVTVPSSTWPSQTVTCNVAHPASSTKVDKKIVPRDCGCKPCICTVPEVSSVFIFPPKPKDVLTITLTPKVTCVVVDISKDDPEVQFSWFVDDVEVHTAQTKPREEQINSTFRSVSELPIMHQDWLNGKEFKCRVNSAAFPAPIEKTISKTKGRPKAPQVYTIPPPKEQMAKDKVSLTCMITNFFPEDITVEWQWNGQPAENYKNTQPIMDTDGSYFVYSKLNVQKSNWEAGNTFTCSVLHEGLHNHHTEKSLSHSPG
T1 sequence (light, as listed by the source, chain 2 of 2): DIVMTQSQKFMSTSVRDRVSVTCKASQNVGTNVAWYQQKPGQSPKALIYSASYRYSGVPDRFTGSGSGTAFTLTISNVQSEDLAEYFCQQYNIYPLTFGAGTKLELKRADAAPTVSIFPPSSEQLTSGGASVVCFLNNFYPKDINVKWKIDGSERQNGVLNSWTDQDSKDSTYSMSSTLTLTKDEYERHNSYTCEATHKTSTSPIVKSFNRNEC
T2 sequence (VH, as listed by the source, chain 1 of 2): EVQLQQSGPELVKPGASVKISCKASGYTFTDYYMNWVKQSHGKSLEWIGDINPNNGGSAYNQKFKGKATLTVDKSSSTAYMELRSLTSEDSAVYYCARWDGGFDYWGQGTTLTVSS
T2 sequence (VL, as listed by the source, chain 2 of 2): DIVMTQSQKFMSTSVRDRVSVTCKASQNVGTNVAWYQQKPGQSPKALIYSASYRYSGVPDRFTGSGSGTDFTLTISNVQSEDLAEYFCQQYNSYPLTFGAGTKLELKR

LDGQRGKCWCVDRKT [G10]: binds [1]; binds [2].

B1: anti-IBP4 antibody 1G3.A3 (antibody, mouse IgG1)
heavy: QVQLQQSGAELVRPGASVTLSCKASGYTFTDYEMHWVKQTPVHGLEWIGAIDPETGGIAYNQKFRGKAILTADKSSSTAYMELRSLTSEDSAVYYCARNYGISSYYAVDYWGQGTSVTVSSAKTTPPSVYPLAPGSAAQTNSMVTLGCLVKGYFPEPVTVTWNSGSLSSGVHTFPAVLQSDLYTLSSSVTVPSSTWPSQTVTCNVAHPASSTKVDKKIVPRDCGCKPCICTVPEVSSVFIFPPKPKDVLTITLTPKVTCVVVDISKDDPEVQFSWFVDDVEVHTAQTKPREEQINSTFRSVSELPIMHQDWLNGKEFKCRVNSAAFPAPIEKTISKTKGRPKAPQVYTIPPPKEQMAKDKVSLTCMITNFFPEDITVEWQWNGQPAENYKNTQPIMDTDGSYFVYSKLNVQKSNWEAGNTFTCSVLHEGLHNHHTEKSLSHSPGK
light: DIVMTQSQKFMSTTVGERVSITCKASQNVGTAVAWYQQKPGQSPKLLIYSASNRYTGVPDRFTGSGSGTDFTLTISNMQSEDLADYVSQQYSSYPLTFGAGTKLELK
notes: Mouse hybridoma mAb raised against FL IBP4; also called IBP4-1G3.A3
With B1 the “ave RR” value [3] was 0.291, the Kd [4] was 22 nM and the koff [4] was 0.0033 s⁻¹. For the same binder, the kon [4] was 160000 M⁻¹ s⁻¹, the t1/2 [4] was 3.5 min and the “ave RR” value [5] was 0.281. For the same binder, the “Response Ratio” value [6] was 0.272, the “ave IBP4 AC-MS RR” value [7] was 0.272 and the “ave RR” value [8] was 0.289.

PALDGQRGKCWCVDR [G9]: binds [1]; binds [2].

CHPALDGQRGKCWCV [G8]: binds [1]; binds [2].

B2: anti-IBP4 antibody 3D4.E9 (antibody, mouse IgG2b, kappa, V domains shown)
VH: QVQLQQSGAELVRPGASVTLSCKASGYTFTDYEMHWVKQTPVHGLEWIGAIDPETGGAAYNQKFKGKAILTADKSSSTAYMELRSLTSEDSAVYYCTRARGSSSVYYFDYWGQGTTLTVSS
VL: DIVMTQSQKFMSTSVGDRVSVTCKASQNVGTNVAWYQQKPGQSPKALIYSTSYRYSGVPDRFTGSRSGTDFILTISNVQSEDLAEYFCQQYDSYPLTFGSGTKLEIKR
notes: Mouse hybridoma mAb raised against FL IBP4; also called IBP4-3D4.E9
For B2, the “ave RR” value [3] was 0.468, the Kd [4] was 8 nM and the koff [4] was 0.00221 s⁻¹. For the same binder, the kon [4] was 270000 M⁻¹ s⁻¹, the t1/2 [4] was 5.23 min and the “ave RR” value [5] was 0.491. For the same binder, the “Response Ratio” value [6] was 0.439, the “ave IBP4 AC-MS RR” value [7] was 0.439 and the “ave RR” value [8] was 0.454.

B3: anti-SHBG antibody clone variant 13C9.E5 (antibody, mouse IgG1, kappa, V domains shown)
VH: QIQLQQPGAELVKPGASVKMSCKASGYTFTGYWMHWVKQRPGQGLEWIGVIDPSDTYTNYNQKFRGKATLTVDTSSSTAYMQLSGLTSEDSAVYYCTRDPLVTADFDYWGQGTTLTVSS
VL: B2 VL with G30D, Q37R, T51A, Y55F, R66G, I72T, V78F, L96Y, S100G
notes: Mouse monoclonal; variant form; also called SHBG (13C9.E5) Anti SHBG v2; SHBG #16
In the case of B3, the Kd [9] is reported as 0.765 nM, the koff [9] is reported as 7.94e-05 s⁻¹ and the kon [9] is reported as 104000 M⁻¹ s⁻¹. For the same binder, the Kd [10] was 0.8 nM, the koff [10] was 8e-05 s⁻¹ and the kon [10] was 103000 M⁻¹ s⁻¹. The Kd [11] was 0.415 nM, the koff [11] was 4.54e-05 s⁻¹ and the kon [11] was 109000 M⁻¹ s⁻¹. The Kd [12] was 1.27 nM, the koff [12] was 0.000119 s⁻¹ and the kon [12] was 94100 M⁻¹ s⁻¹.

VDRKTGVKLPGGLEP [H3]: no binding (tested: about 7 ul of peptide) [1]; no binding (tested: about 7 ul of peptide) [2].

HPKQCHPALDGQRGK [G6]: no binding (tested: about 7 ul of peptide) [1]; no binding (tested: about 7 ul of peptide) [2].
